Entries after “also recorded” stand apart in the source; their conditions may differ.
T1: interaction of CD70 with its receptor CD27 (Homo sapiens, UniProt P32970)
T1 sequence (P32970 1-193): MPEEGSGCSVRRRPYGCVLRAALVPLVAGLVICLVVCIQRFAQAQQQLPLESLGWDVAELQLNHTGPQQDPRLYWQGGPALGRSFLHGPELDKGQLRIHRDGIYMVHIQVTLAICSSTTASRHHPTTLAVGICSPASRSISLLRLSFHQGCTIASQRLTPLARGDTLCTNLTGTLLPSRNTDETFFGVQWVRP


How the values were obtained:
[1] = tested on: ROS-low LSCs from mono-AML and prim-AML; conditions: versus ROS-low LSCs from primitive AML (Pei et al. 2020); cited from earlier work
[2] = cited from earlier work
[3] = tested on: total mononuclear cell fraction of M4/5 samples; conditions: M4/5 AML samples, ex vivo; cited from earlier work
[4] = tested on: CD70 positive monocytic AML cells; assay: Cusatuzumab-mediated NK-dependent ADCC on primary AML bone marrow samples; assay type: cell-based, human; conditions: 10 μg/ml, 24 hours
Excerpt: FIG. 7B is a bar graph showing the effect on monocytic and primitive AML cells. following administration of cusatuzumab, 41D12 FcDead antibody and a vehicle control. […] One-way ANOVA test was used to determine significance. *p<0.05.
FIG. 7C is a bar graph showing the effect on monocytic AML cells following administration of cusatuzumab, 41D12 FcDead antibody and a vehicle control. […] One-way ANOVA test was used to determine significance. ***p<0.001.
Cusatuzumab is an afucosylated anti-human CD70 antibody with enhanced properties to mediate NK-dependent antibody-dependent cellular cytotoxicity (ADCC) (Silence et al. 2014). VEN+AZA resistant CD70 positive monocytic AML (CD45^bright/SSC^high/CD38^+/CD34^−/CD33^+/CD11b^+/CD70^+) and mixed phenotype samples containing CD70 positive monocytic cells (CD45^bright/SSC^high/CD38^+/CD34^−/CD33^+/CD11b^+/CD70^+) and CD70 negative VEN+AZA sensitive primitive cells (CD45^medium/SSC^low/CD34^−/CD33^+/CD11b^+/CD70^− containing both CD38^+ and CD38^− populations) (FIG. 7A) were tested for sensitivity to cusatuzumab-mediated ADCC. Both types of primary bone marrow samples were treated with cusatuzumab at 10 μg/ml concentration and co-incubated with human NK cells isolated by a negative selection from healthy donor PBMCs. NK cells were added in 1:5 and 1:15 target to effector cells (T:E) ratio to monocytic AML and mixed phenotype bone marrow samples, respectively. Cells were co-cultured for 24 hours at 37° C. in cell culture incubator. Flow cytometry analysis was performed in order to measure number of primitive and monocytic AML cells and estimate the level of ADCC for particular sample. […] This supports the specificity of cusatuzumab-mediated effects in the targeting of CD70-positive VEN+AZA resistant monocytic AML cells.

[5] = biological target: T1, interaction of CD70 with its receptor CD27; conditions: Silence et al. (2014); cited from earlier work
[6] = tested on: LSCs from VEN+AZA resistant monocytic AML bone marrow samples; assay: Colony forming unit (CFU) assay after incubation with antibody and NK cells; assay type: cell-based, human; conditions: 10 μg/ml antibody, NK cells 1:5 T:E, 24-hour incubation, then 14 days in methocult medium
Description: FIG. 9 is a bar graph showing the effect of antibody treatment on leukemic stem cells from CD70 positive VEN+AZA resistant monocytic AML bone marrow samples. Data is normalized to the no antibody control colony forming units (CFU) for isotype control, blocking anti-CD70 antibody 41D12 FcDead and cusatuzumab. VEN+AZA resistant monocytic AML bone marrow samples were incubated with NK cells (1:5 T:E ratio) in the presence of antibodies (10 μg/ml) and then cultured in CFU medium in order to determine if LSCs were also efficiently targeted by cusatuzumab-mediated NK-dependent ADCC. […] One-way ANOVA test was used to determine significance. ****p<0.0001.
In order to test if CD70 positive LSCs from VEN+AZA resistant monocytic AML bone marrow samples could be targeted by cusatuzumab, bone marrow samples coming from VEN+AZA resistant samples were first incubated with cusatuzumab (10 μg/ml) and NK cells isolated from PBMCs from healthy donor (1:5 T:E ratio). After a 24-hour incubation samples were moved to methocult medium and further cultured in order to check if LSCs were targeted by cusatuzumab-mediated ADCC. No treatment, human IgG1 isotype control and blocking 41D12 FcDead antibody were used as negative controls. Cells were incubated in cell culture incubator at 37° C. for 14 days and colony forming units (CFU) were estimated by counting growing colonies.

[7] = tested on: VEN+AZA resistant monocytic AML cells; assay: Patient-derived xenograft mouse model, monocytic AML cells in mouse bone marrow; assay type: in vivo, NSGS mice; conditions: 3 doses every 3 days, cusatuzumab 10 mg/kg, Ven 100 mg/kg + Aza 3 mg/kg
Description: FIG. 10 is a bar graph showing the efficacy of anti-CD70 antibody treatment in the presence of NK cells in a patient-derived xenograft mouse model. NSGS mice were engrafted with VEN+AZA resistant monocytic AML bone marrow sample. When engraftment level in bone marrow reached around 25% of leukemic cells, animals were treated 3 times every 3 days with cusatuzumab or VEN+AZA with or without a single infusion of 1.5×10^6 NK cells. After 9 days animals were sacrificed, bone marrow from femur isolated and the number of malignant monocytic cells in bone marrow was determined. […] Mann-Whitney test was used to determine significance. *p<0.05, **p<0.01, ***p<0.001, ****p<0.0001.
Patient samples injected in NSGS mice engraft in mouse bone marrow. The efficiency of anti-leukemic compounds can be measured stringently using therapeutic approaches after full engraftment of patient-derived samples and by determination of the reduction of malignant cells in mouse bone marrow. 2×10^6 cells from bone marrow from VEN+AZA resistant monocytic AML per NSGS mouse were engrafted for 42 days. One cohort of animals was treated with vehicle, combination of 100 mg/kg Ven and 3 mg/kg Aza or 10 mg/kg cusatuzumab. […] One day after the third dose animals were sacrificed and bone marrow from femur was isolated and samples were analysed by flow cytometry to determine the number of monocytic AML cells. […]

[8] = tested on: CD70-expressing tumor cells; conditions: cited from earlier work
[9] = tested on: leukemic stem cells (LSCs) in AML patients; conditions: in combination with azacitidine; see WO2018/229303; cited from earlier work
[10] = tested on: CD70-induced CD27 signaling; conditions: Silence et al. (2014); cited from earlier work

Molecule | resistance of ROS-low LSCs from monocytic AML [1] | aqueous solubility [2] | venetoclax sensitivity [3] | NK cell-dependent ADCC of monocytic cells ([4]; VEN+AZA resistant monocytic AML bone marrow sample, NK cells 1:5 T:E) | NK cell-dependent ADCC of monocytic cells ([4]; VEN+AZA resistant monocytic AML bone marrow sample, NK cells 1:5 T:E, listed as Cusatuzumab) | NK cell-dependent ADCC of monocytic cells ([4]; mixed phenotype AML bone marrow sample, NK cells 1:15 T:E) | NK cell-dependent ADCC of monocytic cells ([4]; mixed phenotype AML bone marrow sample, NK cells 1:15 T:E, listed as Cusatuzumab) | interaction of CD70 with its receptor CD27 [5] | number of growing colonies (CFU) versus no treatment control [6] | malignant human CD45+CD11b+CD117− cells in mouse bone marrow ([7]; in the absence of human NK cells) | malignant human CD45+CD11b+CD117− cells in mouse bone marrow ([7]; in the presence of human NK cells (1.5×10^6)) | antibody dependent cellular phagocytosis (ADCP) of CD70-expressing cells ([8]; Silence et al. (2014)) | lysis of CD70-expressing tumor cells via antibody dependent cell-mediated cytotoxicity (ADCC) [8] | lysis of CD70-expressing tumor cells via complement dependent cytotoxicity (CDC) [8] | leukemic stem cells (LSCs) in AML patients [9] | CD70-induced CD27 signaling [10]
CC1(C)CCC(CN2CCN(c3ccc(C(=O)NS(=O)(=O)c4ccc(NCC5CCOCC5)c([N+](=O)[O-])c4)c(Oc4cnc5[nH]ccc5c4)c3)CC2)=C(c2ccc(Cl)cc2)C1 [venetoclax, 4-(4-{[2-(4-chlorophenyl)-4,4dimethylcyclohex-1-en-1-yl]methyl}piperazin-1-yl)-N-({3-nitro-4-[(tetrahydro-2H-pyran-4ylmethyl)amino]phenyl}sulfonyl)-2-(1H-pyrrolo[2,3-b]pyridin-5-yloxy)benzamide] | increased resistance | very low | decreased |  |  |  |  |  |  |  |  |  |  |  |  | 
cusatuzumab: monoclonal IgG1 anti-CD70 antibody, afucosylated for enhanced ADCC; CDR, VH and VL sequences in Table 1 (antibody, V domains shown) VH: EVQLVESGGGLVQPGGSLRLSCAASGFTFSVYYMNWVRQAPGKGLEWVSDINNEGGTTYYADSVKGRFTISRDNSKNSLYLQMNSLRAEDTAVYYCARDAGYSNHVPIFDSWGQGTLVTVSS VL: QAVVTQEPSLTVSPGGTVTLTCGLKSGSVTSDNFPTWYQQTPGQAPRLLIYNTNTRHSGVPDRFSGSILGNKAALTITGAQADDEAEYFCALFISNPSVEFGGGTQLTVLG |  |  |  | significantly targeted | significantly mediate NK-dependent cell killing | significantly targeted | significantly mediate NK-dependent cell killing | inhibit the interaction of CD70 with its receptor CD27 | clear drop in the number of growing colonies; also recorded: significantly reduce the number of LSCs | no significant effect | significant reduction; also recorded: significantly reduced levels of monocytic AML cells | increase antibody dependent cellular phagocytosis (ADCP) | lyse CD70-expressing tumor cells | lyse CD70-expressing tumor cells | efficiently reduced | inhibit CD70-induced CD27 signaling

From patent publication US20240182590A1, “METHOD OF TREATMENT OF PATIENTS HAVING REDUCED SENSITIVITY TO A BCL-2 INHIBITOR” (argenx BV, priority 2020, published 2024)
